The text below walks through data of paper PMC8825253, “pHBMT1, a BAHD-family monolignol acyltransferase, mediates lignin acylation in poplar” (Plant Physiology, 2021).

Holding throughout (assay): LC-MS product quantification, Lineweaver-Burk
Common to all, as to format: biochemical, Populus trichocarpa

The test system of data set [1] is CC(C)(COP(=O)(O)OP(=O)(O)OC[C@H]1O[C@@H](n2cnc3c(N)ncnc32)[C@H](O)[C@@H]1OP(=O)(O)O)[C@@H](O)C(=O)NCCC(=O)NCCSC(=O)c1ccc(O)cc1. The settings on record: saturating sinapyl alcohol, 50 mM sodium phosphate pH 6, 1 mM DTT, wheatgerm cell-free enzyme. An excerpt: (§1) LC-MS product quantification, Lineweaver-Burk on pHBMT1 (Potri.001G448000)
The subject of data set [2] is COc1cc(/C=C/CO)cc(OC)c1O. The settings on record: saturating p-hydroxybenzoyl-CoA, 50 mM sodium phosphate pH 6, 1 mM DTT, wheatgerm cell-free enzyme.
Description: as §1

Data set [3] concerns COc1cc(/C=C/CO)ccc1O. The conditions noted are these: saturating p-hydroxybenzoyl-CoA, 50 mM sodium phosphate pH 6, 1 mM DTT, wheatgerm cell-free enzyme.
Description: as §1

For orientation: Km means the concentration of substrate that gives half-maximal velocity. As usually defined, the kcat is the maximal rate divided by the concentration of active sites. One may read the kcat/Km as the second-order rate constant that governs catalysis at low substrate concentration.

With “pHBMT1 (Potri.001G448000) (Populus trichocarpa)”, the Km worked out at 448 ± 21 µM in data set [1], 300 ± 72 µM in data set [2] and 954 ± 411 µM in data set [3]. The values for the kcat in data set [1], in data set [2] and in data set [3] were 0.18 ± 0.03 s⁻¹, 0.13 ± 0.01 s⁻¹ and 0.1 ± 0.02 s⁻¹, respectively. For the same substance, the specificity constant (kcat/Km) was 400 M⁻¹ s⁻¹ in data set [1] and 490 M⁻¹ s⁻¹ in data set [2].
